Laboratory results taken from the domain aggregation screens of Martell et al. (2025).

test: soluble fraction after stress (log2 fold change); higher = more stays soluble; pooled small domains, quantitative proteomics; settings: stress: 75 degC
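Note: 20 min heating vs room temperature control held 20 min.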

First: HMSQTPDLQQERANLGDNADARIEAVDLWANKFFPEEHADAILQIGQTAKGIEALEFIMSKV
Second: HMSQVLVRINQDLNIRSGPGAQYDIIAVYRSGAIASVIGTYNNWYKVNFELDSKSYTGWINGTFTSR
The “soluble fraction (log2)” value of the first is higher: -0.0375 for the first, -2.48 for the second.

Going from “HMSQYELEDVEKQRLKFKNGDEKALWLLSDIYKDNSQSYEVRLAALRALSESRHPLIIFDIQSSVK” to “HMSRAAQRLFMSQPPLSRHIRQLEDRLGVTLFVRHTRGLTLTEDGQRVLEMVRPLLDLQDKTYAALSQLT”, the “soluble fraction (log2)” value rises from -0.527 to 0.0487.

First: HMSREMIKSELESISGLGKSGIEKLYTHFINIENIKSASLENIRNIPGISYKVADNIYKHFH
Second: HMSRLGINTTIEDIKMVGKIIMPLLKQGQSVYQILASHPEIPYSEKTLYSYIEDNIFKDAGIDISVFDL
The “soluble fraction (log2)” value of the first is higher: -0.238 for the first, -1.32 for the second.

Compared with “HMSRLLERARDLMAKPGAWLSAEGGAYALRLSPDRRSRISLTLTETEFRALIDQPGLRVRPGGGWSGRA”, “HMSRMGDSIKSLRSRNNMSQDALAEKLNVTRQAISNWENSKTQPDADTLKNLGIIFNVTVDEIINNDF” is higher in “soluble fraction (log2)” value: -3.05 for the first, 0.0824 for the second.

“HMSRQREWIYDYIQSHPDRHMSVEEIYEGLKAENREVSVATVYRNLKILQDENRIASLMLESGKQVFDK” and “HMSRREEALIALAQRVARQVARTKQPVTLEPMPANERRVIHVALRDNPDVETRSSGEGDQRRVTVYPRQ” are within 0.2 log units of each other in “soluble fraction (log2)” value: -0.384 for the first, -0.228 for the second.

Going from “HMSRRIEIELTSSRPDGSWTWRAAGAREPKGVLDGTLLSQGSKPGDVVKAEAEFDIDGITIVSITQ” to “HMSRSKLNRLDKIKKMLIAQTGISIKEFSASLNVSEITIRRDLNLLEEQGFIRLVNGVAIYRM”, the “soluble fraction (log2)” value falls from -0.405 to -1.75.

“HMSRSLEIDVLVKALLEQDRRKFMLVTDGTADVTVRYNNALPSLFREGQGVVAEGLMDNGKFIATNVLAK” and “HMSRSLLAALEKLRESHTGSLPASVLSSAQRRSLESFAQTTKSVQMRPSGRGVVFAIINPEVVDKHWRELS” are within 0.2 log units of each other in “soluble fraction (log2)” value: -0.811 for the first, -0.959 for the second.

Compared with “HMSRSSQMVNFIRLLSQEKKVSVNSIFSSSVQLSDGIIVKINDFYYRVNLSLDQKTYSLVEVS”, “HMSRVKQERLNRFVEAFEAYFRSVHPGEIDVEYLKSDEFGDIFESILHRVMHTASEEKMHRFKKILLNEM” is lower in “soluble fraction (log2)” value: -0.483 for the first, -2.14 for the second.

Compared with “HMSSADIPFSRFIDDVEAQRVEKVTIDGVNVTGRYRSDGAAFKTIIPSQYDGLVPILRQNKVDITVKDA”, “HMSSAMDMISRDVRNADSISISTTTYSKKIDLYNFDRNGDIEELHSYSAKNDLGILYNDEPI” is lower in “soluble fraction (log2)” value: 0.24 for the first, -0.35 for the second.

Compared with “HMSSANIKLDPLERQATQQIINNIKRKYPNATIENLQEVANDAIATMRQPEFSNYTVDKFVSYFLSM”, “HMSSARKVTVRGVRELPGIFMEKAEILDDGVRFFYRGEMEKLIGALQGLPIRDLTITEPDLEEVFLHFY” is lower in “soluble fraction (log2)” value: -0.519 for the first, -1.48 for the second.

First: HMSSASETQYELALQAMRDGDNDAALRSLSTALASGFSDWQRIDEEPLLAALANDVRFQVLRSRWK
Second: HMSSDLVDYLVKYVAIVDNQEIEIADSKIGTAELGTTVSEVAKTVGNYYPKATVLSVKITGRNQEIVFEY
The “soluble fraction (log2)” value of the first is higher: 0.0593 for the first, -2.91 for the second.

First: HMSSEPYISLPRGAAHDAYPLSTKAVAAQLGMSEVWLANLRSKGKGPRYVRVGTRVFYSPEDVAQWRRAT
Second: HMSSESIIIKKLIEEFIHNENKYSPLSDEKLSYLLKNKGFSVARRTVAKYRDELGILSTRERKIKI
The “soluble fraction (log2)” value of the first is higher: -1.18 for the first, -1.76 for the second.

Compared with “HMSSEYARFFSGNYYEVLGVAKNASYDEIKAAWKKLVKEYHPDLHPQRQEEFTKIIQKINEAYEYFKKMH”, “HMSSFFLIDVSQVRIGMYIQLDVGWMRHPFPVNSFRITNQEQLDTLRSLNLAQVRWSPAKSDL” is lower in “soluble fraction (log2)” value: -0.583 for the first, -3.64 for the second.

Compared with “HMSSFIEAIKQSGTDSLDVIMKNGRVYRYVGIDADRLGYLLEPHQQKLSLEESIGRFYIDYIKGIYEAIE”, “HMSSGNLESLLNKLHNEDYFVRLDAVKALGALGDPGAIDYLIEMLSENGIMRGWVANSLAALGEAQWKKII” is lower in “soluble fraction (log2)” value: -1.47 for the first, -2.22 for the second.

“HMSSHSAEAVRHRIKSMIDHEARDGDVLSDDRIVELLNQAGIDIARRTVAKYREALRIPSSVERKRRLKA” and “HMSSKRDQFIVLGQEILEKMFKNEGLEFSEKGLLAVMPNFEAESINDIYAKVGEGLISGWDVMKAVYPAY” are within 0.2 log units of each other in “soluble fraction (log2)” value: -0.163 for the first, -0.311 for the second.

Going from “HMSSKSLAALSPQEYRLLPLVAEGKTNKEIASALALSDKTVKNYLANIFSKLGITRRTQAATLYARAL” to “HMSSKYLKIYNDIVGKIDSGIFEANTKLPSESQLMDEYNVSRYTVRKSLNLLEQNGYIEKSKGKGSFVLDM”, the “soluble fraction (log2)” value falls from -0.338 to -1.

Compared with “HMSSLQFVTLTLMEGHAWVGREIQELLMPPQMRIALIRRGDSQVIPKGSTILESADELILSAIEYQG”, “HMSSLREQVADALRAHLVSGRMRPGVLYSAPKLAAEFGVSATPVREAMLDLVSEGLVDVVRNKGFRVT” is higher in “soluble fraction (log2)” value: -4.48 for the first, -0.597 for the second.

First: HMSSPPNPQLAKRYISYSVDDIARLFGIHRHTVREWIKRGLPVIDQQRPLLVQGADLAEFLRKRRA
Second: HMSSPVIQINTRNDGWIIKLLQPAVEKDVLEGYLADVGLKLQSQMMEKILAAPAGTEFHIKRGSNILTE
The “soluble fraction (log2)” value of the first is lower: -0.948 for the first, -0.291 for the second.

Going from “HMSSQADEEALFKLLAANPYSDEQLEEIRIAIGSGIAYKDIIRIADIGNTAERMKQLRLEFTKDTAN” to “HMSSQGSLEKGYSALLDGRLDDAALAYGAALAANPMERDALLGLAYVAHSKGRREEAQALYRKVLR”, the “soluble fraction (log2)” value falls from 0.173 to -0.303.

Going from “HMSSSTFVGRVAVITIGEARQNSPAEARFKDRHGTTHYVMVEPMEDVVFKQGDKVLLVESAGATFKVIEPA” to “HMSSTSISFNDFQKYWLSNDIKSFQLREDKMTVQGSLKNGTAYETVVPSERLFQFIGQHPKD”, the “soluble fraction (log2)” value rises from -1.58 to 0.863.

“HMSSVDLLSERERQVLARISRGMSNEEIAAELAITPRTVRNHLANIYGKIDVHSRAEAVVWARERGIT” and “HMSSVEQAILETLSKEHSHLTSLQVFEEIRGRLPAVNQSTVYRALERLVEQGVVSVSDMGTHAAVYE” are within 0.2 log units of each other in “soluble fraction (log2)” value: -0.362 for the first, -0.197 for the second.

Going from “HMSSVMMPDLTGESAIVAMERLQQLGLLPKVEEVDSYREPGIVLEQLPRAGEKIKRGRIAILKVSS” to “HMSSVTGMERFLSSGAVKGIGKTMAARIVEHFGTETMTVLESFPERLAEVPGIGAKKAEAIGQSYSEISD”, the “soluble fraction (log2)” value rises from -0.0579 to 0.158.

Going from “HMSSVVARRARIATLVVETSVASQEELGRLLADEGITVTQATLSRDLDALGAVKVLSADGGTRYRIPGQ” to “HMSSVVVARTWTDTTGDFKVEAELLGVEGGLVRLKKEDGTVLSVPIAKLSTADRTFLQENQP”, the “soluble fraction (log2)” value rises from -1.87 to 0.00842.

Going from “HMSSWEDNFSYWIRNVAETLDKDLLNVANSKLEKIIINAALDQTNGKKNEAAILLGLGRNTLAKKIKELG” to “HMSSWEEQLKIWAKNELASGNTDILARATVSFEQILIEAALTHTGGRKKTAAELLGWGRNTLTRKIKELHI”, the “soluble fraction (log2)” value rises from -0.799 to 0.0904.

Going from “HMSSWEVLAEPIQTVMRRYGVPGAYEKLKEVTRGKSLTAEALHALIRSLDIPQADKERLLALTPAAWA” to “HMSSYAEVMERSKYLQLHKYKIWKSETDGFWRTYYLNEQGKRKMKKLKHSEDMIDFVIEYVQNNE”, the “soluble fraction (log2)” value falls from -1.34 to -2.17.

First: HMSTDDILSSITALRLASVQFQLGQFDPALDSLKLVKEQAWSGAKNILAGDIQLAKGDKEAAKASYQQAQQ
Second: HMSTDIPFNIFSQKWNADEIDSIVVENNKIEGKTKDNKKFSTYAPDELLTSLMENHKNPNVIVEFRAP
The “soluble fraction (log2)” value of the first is lower: -0.422 for the first, 0.576 for the second.

Going from “HMSTDKIDIVSSAILSSLKDNDGFIGLTDKSPPPEIYTAFRVSKKVFKQAIGALYKQRRITLESSGIRLIS” to “HMSTDSTQLLGFNKTGEELPIYKEANEENKFAEIPQNVYVKNFGQNGEFTKIKYLDQEGYVKTAGLK”, the “soluble fraction (log2)” value rises from -0.288 to 0.955.

With “HMSTEEYDRGYEQGLEEAAKADDAWVANLIKIYSQNTPESMPETMKGRLDAFLYEQQRRAQSVPEM” the “soluble fraction (log2)” value was 0.918.
